{"source": "the DeepSol protein solubility set"}
{"assay": "soluble on expression in E. coli; label from the status in PepcDB or PDB records"}
{"sequence": "MSERMWGFGLTEEEASRSIREKMSINDSPTHGHDIHVTRDLVKHHLSKSDMLTDPSQEVLEERTRIQFIRWSHTRIFQVPSEVMDDVMQERIDQVRRSVSHLMCDSYNDPSFRTSCSEC", "soluble on expression in E. coli": "not soluble"}
{"sequence": "MSESQLRKGAVELIVLGLLSSRPSYGGQLVERFREEAGLEISTGTLYPLLARLRKSGLVVTAWEESPVGPPRKIYKLAKPGKNRLLQMRREWEALDCAVKRTTQKGIR", "soluble on expression in E. coli": "not soluble"}
{"sequence": "MSESSHVGLWNRCLEIIRDNVPESTYKTWFVPIVPLKYEDKTLIVQVPSQFFYEFLEDKFVDLLRKTLYKVIGDGTKLMYNVLVDKSSGATVNQESTTRSTAIPQSGLPRVDERKAPGLLRAPAVQDLDPHLNPNYNFETFIEGYSNKLSRSVAEAVAENPAKTVFNPLFLHGASGVGKTHLANAIGTRIKELYPDKRVLYVSAHLFQVQYTDSVRNNTTNDFINFYQTIDVLIIDDIQEFAGVTKTQNTFFHIFNHLHQNGKQLILTSDRAPVLLQGMEERLLTRFKWGMVAELEKPTVELRKNILRNKIHRDGLQFPSEVIDYIAENVNESVRDLEGIVISIMAHSTIYNKEIDLDLAQRIVRKVVRCETKAVTIDDIINVVCKHFDLESSAIHTKSRKREVVQARQVAMYLAKTHTDFSTSKIGKFIGNKDHATVLHACKTVKGQCEVDKGFRSDLENIETLLKKRNVSNGERLEHHHHHH", "soluble on expression in E. coli": "soluble"}
{"sequence": "MSEYPILPSTLIPADPRFGCGPSKVRPAQLNAIVNAGADVIGTSHRQPAVKNIVGSIREGLSSLFSLPDGYEIVLSLGGATAFWDAATFGLIEKKSGHLTFGEFSGKFAKASAQAPWLDEPTIISAEPGDTPTPVAMEGCDVIAWAHNETSTGAMVPVIRPENSDGQLVAIDATSGAGGLPVDMHNADVYYFSPQKCFASDGGLWLAAMSPAALERIEKINASDRFIPAFLNLQTAVDNSRKNQTYNTPAVGTLLMLENQVEWMNANGGLDAMVERTTANSSALYEWAEKRAETTPYVTDPAKRSLVVGTIDFDDSIDAAALAKVLRANGILDVEPYRKLGRNQLRIGMFPAIDTADMDTLTAAIDYVLDNGFAQA", "soluble on expression in E. coli": "not soluble"}
{"sequence": "MSFDGFFLHHIVEELRSELVNGRIQKINQPFEQELVLQIRSNRQSHRLLLSAHPVFGRIQLTQTTFENPAQPSTFIMVLRKYLQGALIESIEQVENDRIVEITVSNKNEIGDHIQATLIIEIMGKHSNILLVDKSSHKILEVIKHVGFSQNSYRTLLPGSTYIAPPSTKSLNPFTIKDEKLFEILQTQELTAKNLQSLFQGLGRDTANELERILVSEKLSAFRNFFNQETKPCLTETSFSPVPFANQVGEPFANLSDLLDTYYKDKAERDRVKQQASELIRRVENELQKNRHKLKKQEKELLATDNAEEFRQKGELLTTFLHQVPNDQDQVILDNYYTNQPIMIALDKALTPNQNAQRYFKRYQKLKEAVKYLTDLIEETKATILYLESVETVLNQAGLEEIAEIREELIQTGFIRRRQREKIQKRKKLEQYLASDGKTIIYVGRNNLQNEELTFKMARKEELWFHAKDIPGSHVVISGNLDPSDAVKTDAAELAAYFSQGRLSNLVQVDMIEVKKLNKPTGGKPGFVTYTGQKTLRVTPDSKKIASMKKS", "soluble on expression in E. coli": "not soluble"}
{"sequence": "MSFDKQNLIWIDLEMTGLDPEKERIIEIATIVTDKNLNILAEGPVLAVHQSDELLNKMNDWCQKTHSENGLIERIKASKLTERAAELQTLDFLKKWVPKGASPICGNSIAQDKRFLVKYMPDLADYFHYRHLDVSTLKELAARWKPEILEGFKKENTHLALDDIRESIKELAYYREHFMKLDLEHHHHHH", "soluble on expression in E. coli": "soluble"}
{"sequence": "MSFFKKLAASAGIGAAKVDTILEKDAYFPGEEVQGTVHVKGGKIAQDIRYIDLQLSTRYVIVKDDEEHRKYATIHSFRVTGSFTIQPGEEHQFPFTFTLPLDTPITVGKVEVAVVTDLDIQGGIDKSDHDRIFVEAHPWIENVLEAIENLGFRLNEADCEQAPYFQRRFPFVQEFEFVPTSGYYRQMLDELELIFLLGEDGLEIIFEVDRRARGLRGWLEEMYNDGEQLVRVRFSQSELEDAEELEEVLEEILDQYVE", "soluble on expression in E. coli": "soluble"}
{"sequence": "MSFLSNSLNRISFNSFSNMHSLLSSKFQEHYNDIYDWNGNIENIYKANTFISIGYKLLYPLGVLEANFDKEKLKKFLFRICSYYNDIPYHTSLHAAQVAHFSKSMLFMLDMNHKISAIDEFCLHISSLCHDTGHPGLNNYFLINSENNLALTYNDNSVLENYHCSLLFKTLKNPNYNIFEHYPYHIFISCKKNIIKAILSTDMKNHFEYISDFRTSKEFIDYDNLSNDQIWQIFCLILKASDIGHSTLEWNKHLEWTLKINEEFYLQGLLEKSLNIQNSFLCDINTMNKLALSQIDFLKHLCIPLFNELNYICKNNDVYTHCIQPIENNIERWESHKNDNQNLGLHEKYKEENLLSKLELIKFE", "soluble on expression in E. coli": "not soluble"}
{"sequence": "MSFSERLLAAWYQGHPALALLRPLEALYRRVANGRRADFLSGRKPAYRAPLPVLVVGNITVGGTGKTPMILWMIEHCRARGLRVGVISRGYGARPPTTPWRVRAEQDAAEAGDEPLMIVRRSGVPLMIDPDRPRALQALLAEEQLDLVLCDDGLQHYRLARDLELVLIDAARGLGNGRCLPAGPLREPAERLESVDALLYNGADEDPDGGYAFRLQPTALINLQSGERRPLEHFPAGQEVHALAGIGNPQRFFRTLEALHWRAIPHAFPDHATYTAAELAFSPPLPLLMTEKDAVKCRAFAAADWWYLAVDAVPSPAFVAWFDARLEH", "soluble on expression in E. coli": "not soluble"}
{"sequence": "MSFTDNWSDEEFIRQMKELIGNEGDMHVTCNHSEGEQVTETHVTREKALWYRHNGDREGMLVCLNLSRVEVLNQRYFLGPCPF", "soluble on expression in E. coli": "not soluble"}
{"sequence": "MSGCDAWEGDCCSRRCGAQDKEHPRYLIPELCKQFYHLGWVTGTGGGISLKHGDEIYIAPSGVQKERIQPEDMFVYDINEKDISGPSPSKKLKKSQCTPLFMNAYTMRGAGAVIHTHSKAAVMATLLFPGREFKITHQEMIKGIKKCTSGGYYRYDDMLVVPIIENTPEEKDLKDRMAHAMNEYPDSCAVLVRRHGVYVWGETWEKAKTMCECYDYLFDIAVSMKKVGLDPSQLPVGENGIV", "soluble on expression in E. coli": "soluble"}
{"sequence": "MSGEPELIELRELAPAGRAGKGRTRLERANALRIARGTACNPTRQLVPGRGHRFQPAGPATHTWCDLCGDFIWGVVRKGLQCARLSADCKFTCHYRCRALVCLDCCGPRDLGWEPAVERDTNVDEPVEWETPDLSQAEIEQKIKEYNAQINSNLFMSLNKDGSYTGFIKVQLKLVRPVSVPSSKKPPSLQDARRGPGRGTSVRRRTSFYLPKDAVKHLHVLSRTRAREVIEALLRKFLVVDDPRKFALFERAERHGQVYLRKLLDDEQPLRLRLLAGPSDKALSFVLKENDSGEVNWDAFSMPELHNFLRILQREEEEHLRQILQKYSYCRQKIQEALHACPLGLEHHHHHH", "soluble on expression in E. coli": "not soluble"}
{"sequence": "MSGFSTEERAAPFSLEYRVFLKNEKGQYISPFHDIPIYADKDVFHMVVEVPRWSNAKMEIATKDPLNPIKQDVKKGKLRYVANLFPYKGYIWNYGAIPQTWEDPGHNDKHTGCCGDNDPIDVCEIGSKVCARGEIIGVKVLGILAMIDEGETDWKVIAINVDDPDAANYNDINDVKRLKPGYLEATVDWFRRYKVPDGKPENEFAFNAEFKDKDFAIDIIKSTHDHWKALVTKKTNGKGISCMNTTLSESPFKCDPDAARAIVDALPPPCESACTVPTDVDKWFHHQKN", "soluble on expression in E. coli": "soluble"}
{"sequence": "MSGIAAGRLAEERKHWRKDHPFGFIAKPVKNADGTLNLFNWECAIPGRKDTIWEGGLYRIRMLFKDDFPSTPPKCKFEPPLFHPNVYPSGTVCLSLLDENKDWKPSISIKQLLIGIQDLLNHPNIEDPAQAEAYQIYCQNRAEYEKRVKKEAVKYAAELVQKQMLE", "soluble on expression in E. coli": "not soluble"}
{"sequence": "MSGILALGAYVPERVMTNADFEAYLDTSDEWIVTRTGIKERRVAAEDEYTSDLAFKAVEDLLRRHPGALEGVDAVIVATNTPDALFPDTAALVQARFGLKAFAYDLLAGCPGWIYALAQAHALVEAGLAQKVLAVGAEALSKIIDWNDRATAVLFGDGGGAAVVGKVREGYGFRSFVLGADGTGAKELYHACVAPRLPDGTSMKNRLYMNGREVFKFAVRVMNTATLEAIEKAGLTPEDIRLFVPHQANLRIIDAARERLGLPWERVAVNVDRYGNTSTASIPLALKEALDAGRIREGDHVLLVSFGAGLTWAAAVLTWGGA", "soluble on expression in E. coli": "soluble"}
{"sequence": "MSGLKPVKPEGVQSEFSVRVAKRSDDIRYSVMMFNGMDKVDTSKWTIDSGVTMEREDNQRVILSTQTVQEYGEGSEYGKAAREEARRKKYGRQSKKYRLDNQPWKMAFTEPEGRQRQMRGIREGGANEHADYWVFLKPNQSSEFKAYKVDEWHKFLPAITHKTLDIDQAEEQFSQRYKVMNQFALKAAIQNQLSATDESEMTEQQKRLLKIKDEASSDDSDGDDEGEGGDDGKKAKNKKKKKKNAKPAKEKRQRVEDKDDVAKYESSDGEDEGREYDYISDSGTDSDREQVPSDEKIEKQLVGVAEEEGARESDSSESEDDLTKKLMKPYGDKKKGNDIEERDSSGTDSDVSDTEKLDSVVFMKANKDGEGGSGGTGKKRPPTEDSDLKMDNLGPSDAKKAKPAVKFEEGLNEETVRRYLRRKPHTTKELLHKMNGKCGNMSKSEMVTQLASILKAIEPNQSRQLKGKKEVLFFSLVNTIA", "soluble on expression in E. coli": "not soluble"}
{"sequence": "MSGNIGANPAIIKLSWIEAAVDAHKTLNFEPSGRKRIGFDVADSGTDKCANVYRHGSVVFWADEWKAKEDELLKSCQRTYQAALEREADIVYDSIGVGASAGAKFSEINADRKSENAYARRVNYQRFNAGAGVHEPDDEYNGIPNKDFFANLKAQAWWLTVSEIRLTPLTTENSILWMS", "soluble on expression in E. coli": "not soluble"}
{"sequence": "MSGRLTGKVALVSGGARGMGASHVRAMVAEGAKVVFGDILDEEGKAMAAELADAARYVHLDVTQPAQWKAAVDTAVTAFGGLHVLVNNAGILNIGTIEDYALTEWQRILDVNLTGVFLGIRAVVKPMKEAGRGSIINISSIEGLAGTVACHGYTATKFAVRGLTKSTALELGPSGIRVNSIHPGLVKTPMTDWVPEDIFQTALGRAAEPVEVSNLVVYLASDESSYSTGAEFVVDGGTVAGLAHNDFGAVEVSSQPEWVT", "soluble on expression in E. coli": "soluble"}
{"sequence": "MSHHHHHHSQGGPQDHVEIIPLGGMGEIGKNITVFRFRDEIFVLDGGLAFPEEGMPGVDLLIPRVDYLIEHRHKIKAWVLTHGHEDHIGGLPFLLPMIFGKESPVPIYGARLTLGLLRGKLEEFGLRPGAFNLKEISPDDRIQVGRYFTLDLFRMTHSIPDNSGVVIRTPIGTIVHTGDFKLDPTPIDGKVSHLAKVAQAGAEGVLLLIADATNAERPGYTPSEMEIAKELDRVIGRAPGRVFVTTFASHIHRIQSVIWAAEKYGRKVAMEGRSMLKFSRIALELGYLKVKDRLYTLEEVKDLPDHQVLILATGSQGQPMSVLHRLAFEGHAKMAIKPGDTVILSSSPIPGNEEAVNRVINRLYALGAYVLYPPTYKVHASGHASQEELKLILNLTTPRFFLPWHGEVRHQMNFKWLAESMSRPPEKTLIGENGAVYRLTRETFEKVGEVPHGVLYVDGLGVGDITEEILADRRHMAEEGLVVITALAGEDPVVEVVSRGFVKAGERLLGEVRRMALEALKNGVREKKPLERIRDDIYYPVKKFLKKATGRDPMILPVVIEG", "soluble on expression in E. coli": "soluble"}
{"sequence": "MSHHRSAFFISDRTGITAESLGHTLLTQFDALDFQRETVPFVDTVEKARALAERISEIAERDHLRPLVFTSIVNPEVREALRLNNVVLIDFFESFIGHLEIELGQKATLTVGKAHGMVNEEKYDHRIEAVNFSLNHDDGVKLKDLHEADVILVGVSRSGKTPTCLYLALQYGIRAANYPLTPEDLGSPTLPKMLLPFKDKMFGLTIDPNRLHHIRSERRPDSKYASMDNCRREVNEAESMFRHHGVPFISTTHKSIEEIASTIMHKAALGRKFLEHHHHHH", "soluble on expression in E. coli": "soluble"}
